From PMC7192624, “A Snu114–GTP–Prp8 module forms a relay station for efficient splicing in yeast” (Nucleic Acids Research, 2020)
Changes are numbered by the printed parent chain. Numbers in names are those of the source.

B1: Aar2 (natural protein, yeast, UniProt P32357 1-355, looked up)
chain: MNTVPFTSAPIEVTIGIDQYSFNVKENQPFHGIKDIPIGHVHVIHFQHADNSSMRYGYWFDCRMGNFYIQYDPKDGLYKMMEERDGAKFENIVHNFKERQMMVSYPKIDEDDTWYNLTEFVQMDKIRKIVRKDENQFSYVDSSMTTVQENELLKSSLQKAGSKMEAKNEDDPAHSLNYTVINFKSREAIRPGHEMEDFLDKSYYLNTVMLQGIFKNSSNYFGELQFAFLNAMFFGNYGSSLQWHAMIELICSSATVPKHMLDKLDEILYYQIKTLPEQYSDILLNERVWNICLYSSFQKNSLHNTEKIMENKYPELLGKDNEDDALIYGISDEERDDEDDEHNPTIVGGLYYQRP
notes: Aar2, U5 snRNP assembly factor, yeast; synthetic gene; source: complex purified (StrepTactin, Heparin, Mono Q, SEC); not shown: Strep tag (from the vector pIDK-C-Strep), C-terminal, kept
B2: Snu114^72-1008 (yeast Snu114 lacking the acidic N-terminal region) (domain or fragment, UniProt P36048 72-1008, looked up)
chain: KEVEVLMETKNTQSPQTPLVEPVTERTKLQEHTIFTQLKKNIPKTRYNRDYMLSMANIPERIINVGVIGPLHSGKTSLMDLLVIDSHKRIPDMSKNVELGWKPLRYLDNLKQEIDRGLSIKLNGSTLLCTDLESKSRMINFLDAPGHVNFMDETAVALAASDLVLIVIDVVEGVTFVVEQLIKQSIKNNVAMCFVINKLDRLILDLKLPPMDAYLKLNHIIANINSFTKGNVFSPIDNNIIFASTKLGFTFTIKEFVSYYYAHSIPSSKIDDFTTRLWGSVYYHKGNFRTKPFENVEKYPTFVEFILIPLYKIFSYALSMEKDKLKNLLRSNFRVNLSQEALQYDPQPFLKHVLQLIFRQQTGLVDAITRCYQPFELFDNKTAHLSIPGKSTPEGTLWAHVLKTVDYGGAEWSLVRIYSGLLKRGDTVRILDTSQSESRQKRQLHDISKTETSNEDEDEDDETPSCEVEEIGLLGGRYVYPVHEAHKGQIVLIKGISSAYIKSATLYSVKSKEDMKQLKFFKPLDYITEAVFKIVLQPLLPRELPKLLDALNKISKYYPGVIIKVEESGEHVILGNGELYMDCLLYDLRASYAKIEIKISDPLTVFSESCSNESFASIPVSNSISRLGEENLPGLSISVAAEPMDSKMIQDLSRNTLGKGQNCLDIDGIMDNPRKLSKILRTEYGWDSLASRNVWSFYNGNVLINDTLPDEISPELLSKYKEQIIQGFYWAVKEGPLAEEPIYGVQYKLLSISVPSDVNIDVMKSQIIPLMKKACYVGLLTAIPILLEPIYEVDITVHAPLLPIVEELMKKRRGSRIYKTIKVAGTPLLEVRGQVPVIESAGFETDLRLSTNGLGMCQLYFWHKIWRKVPGDVLDKDAFIPKLKPAPINSLSRDFVMKTRRRKGISTGGFMSNDGPTLEKYISAELYAQLRENGLVP
notes: synthetic gene; Co-purifies with endogenous GTP; source: insect cells (MultiBac baculovirus); co-produced with Prp8 constructs or alone; purified (StrepTactin, SEC); not shown: Strep tag (from the vector pIDS-C-Strep), C-terminal, kept
B3: Prp8 residues 315-555 (Prp8^SBR), chymotryptic fragment (domain or fragment, yeast, UniProt P33334 315-555, looked up)
chain: STPLRDEVTDKNYYYLFDKKSFFNGKALNNAIPGGPKFEPLYPREEEEDYNEFNSIDRVIFRVPIRSEYKVAFPHLYNSRPRSVRIPWYNNPVSCIIQNDEEYDTPALFFDPSLNPIPHFIDNNSSLNVSNTKENGDFTLPEDFAPLLAEEEELILPNTKDAMSLYHSPFPFNRTKGKMVRAQDVALAKKWFLQHPDEEYPVKVKVSYQKLLKNYVLNELHPTLPTNHNKTKLLKSLKNTK
B4: Prp8^SBR Δ421–468 (domain or fragment, yeast, UniProt P33334 315-555, looked up)
chain: STPLRDEVTDKNYYYLFDKKSFFNGKALNNAIPGGPKFEPLYPREEEEDYNEFNSIDRVIFRVPIRSEYKVAFPHLYNSRPRSVRIPWYNNPVSCIIQNDEEYDTPILPNTKDAMSLYHSPFPFNRTKGKMVRAQDVALAKKWFLQHPDEEYPVKVKVSYQKLLKNYVLNELHPTLPTNHNKTKLLKSLKNTK
notes: also called Prp8^Δ421–468; source: insect cells, co-produced with Snu114; complex purified; not shown: Strep tag (from the vector pFL-N-Strep), N-terminal, kept
B5: Prp8^SBR Δ402–406 (domain or fragment, yeast, UniProt P33334 315-555, looked up)
chain: STPLRDEVTDKNYYYLFDKKSFFNGKALNNAIPGGPKFEPLYPREEEEDYNEFNSIDRVIFRVPIRSEYKVAFPHLYNSRPRSVRIPVSCIIQNDEEYDTPALFFDPSLNPIPHFIDNNSSLNVSNTKENGDFTLPEDFAPLLAEEEELILPNTKDAMSLYHSPFPFNRTKGKMVRAQDVALAKKWFLQHPDEEYPVKVKVSYQKLLKNYVLNELHPTLPTNHNKTKLLKSLKNTK
notes: also called Prp8^Δ402–406; source: insect cells, co-produced with Snu114; complex purified; not shown: Strep tag (from the vector pFL-N-Strep), N-terminal, kept
B6: Prp8^SBR WY402-403AA (domain or fragment)
chain: not shown
notes: also called Prp8^WY402/3AA; source: insect cells, co-produced with Snu114; complex purified; not shown: Strep tag (from the vector pFL-N-Strep), N-terminal, kept
B7: Prp8^SBR Y403F (domain or fragment, yeast, UniProt P33334 315-555, looked up)
chain: B3 chain with Y89F
notes: also called Prp8^Y403F; source: insect cells, co-produced with Snu114; complex purified; not shown: Strep tag (from the vector pFL-N-Strep), N-terminal, kept
B8: Prp8^SBR Y403A (domain or fragment, yeast, UniProt P33334 315-555, looked up)
chain: B3 chain with Y89A
notes: also called Prp8^Y403A; source: insect cells, co-produced with Snu114; complex purified; not shown: Strep tag (from the vector pFL-N-Strep), N-terminal, kept
B9: Prp8^SBR 402–406_5S (domain or fragment, yeast, UniProt P33334 315-555, looked up)
chain: B3 chain with W88S, Y89S, N90S, N91S, P92S
notes: also called Prp8^402–406_5S; source: insect cells, co-produced with Snu114; complex purified; not shown: Strep tag (from the vector pFL-N-Strep), N-terminal, kept

The binders below were run against T1, Prp8^132-2413 (large fragment of yeast Prp8 lacking the first 131 residues) (yeast, UniProt P33334 132-2413) (assay: SEC; three proteins co-produced in insect cells, all Strep-tagged; complex purified by StrepTactin, Heparin, Mono Q and SEC (Superose 6, 50 mM TRIS-HCl pH 8.5, 300 mM NaCl, 2 mM DTT); analytical gel filtration with SDS-PAGE of fractions). Conditions: both partners purified.
T1 construct: Prp8, yeast, residues 132-2413; synthetic gene; methods and results print 132-2413; source: complex purified (StrepTactin, Heparin, Mono Q, SEC); not shown: Strep tag (from the vector pFL-C-Strep), C-terminal, kept

Row | Binder | binding result
1 | B1 | binds
2 | B2 | binds

The binders below were run against B2 (assay: SEC; limited proteolysis of the purified trimeric complex with chymotrypsin (room temperature, 35 min), then SEC on Superose 6 Increase in 20 mM TRIS-HCl pH 8.5, 500 mM NaCl, 2 mM DTT; fragments identified by mass spectrometric fingerprinting and N-terminal sequencing). Conditions: both partners purified.

Row | Binder | binding result
3 | B3 | binds

What follows are binders tested against B2 (assay: SEC; two proteins co-produced in insect cells, both Strep-tagged; StrepTactin capture, then SEC on Superdex S200 in 10 mM TRIS-HCl pH 8.0, 300 mM NaCl, 2 mM DTT; co-purification of wt and variant complexes). Conditions: both partners purified.

Row | Binder | binding result
4 | B4 | binds
5 | B5 | binds
6 | B6 | binds
7 | B7 | binds
8 | B8 | binds
9 | B9 | binds
